# Source: paper PMC8452709, “Effects of apolipoprotein E isoform, sex, and diet on insulin BBB pharmacokinetics in mice” (Scientific Reports, 2021)
# Assays:
# [1] = tested on: blood–brain barrier (BBB); assay: 125I-insulin BBB transport, multiple-time regression analysis (Ki); format: in vivo, mice (human E3- and E4-targeted replacement); settings: for Ki, linear BBB transport (unidirectional influx rate): 15 mo, iv, albumin-corrected
# Protocol: (§1) Ten micrograms of human insulin (Sigma-Aldrich, St. Louis, MO, USA) was diluted in 0.25 M chloride-free sodium phosphate buffer (PB), pH 7.5, and radioactivity labeled with 0.5–1 mCi Na^125I (Perkin Elmer, Waltham, MA, USA) using the chloramine-T (Sigma-Aldrich) method similar to our previously reported methods. […] Protein labelling by ^125I or by ^99mTc isotopes was characterized by 15% trichloroacetic acid (TCA) precipitation.
# (§2) Mice were anesthetized with an intraperitoneal injection of 0.1–0.15 ml 40% urethane to minimize pain and distress. […] Blood from the left carotid artery was collected between 0.5 and 10 min after intravenous injection. Mice were immediately decapitated and their whole brains quickly removed and weighed. Each mouse provided a single blood sample and time matched brain sample. The arterial blood was centrifuged at 5400g for 10 min at 4 °C and serum collected. The brains were dissected into regions according to the method described in Ref.[56] and weighed. The levels of radioactivity in serum (50 μl) and brain regions were counted in a gamma counter (Wizard2, Perkin Elmer, Waltham, MA). […] Expt was calculated from the formula:1 Exposuretime=∫0tCptdt/Cpt, where Cp is the level of radioactivity (cpm) in serum at time (t). Expt corrects for the clearance of peptide from the blood. The influx of insulin was calculated by multiple-time regression analysis as described by Patlaket al.[55],[57]:2 Am/Cpt=Ki∫0tCptdt/Cpt+Vi, where Am is level of radioactivity (cpm) per g of brain tissue at time t, Cpt is the level of radioactivity (cpm) per ml arterial serum at time t, Ki (μl/g-min) is the steady-state rate of unidirectional solute influx from blood to brain. Vi (μl/g) is the level of rapid and reversible binding for brain which usually is a combination of vascular space plus any brain endothelial cell receptor binding. The brain/serum (B/S) ratios for insulin were corrected for vascular space by subtracting the corresponding ratio for albumin, yielding a delta B/S ratio. The linear portion of the relation between the delta B/S ratio versus Expt was used to calculate the Ki (μl/g-min) with its standard error term, and the y-intercept determined as representation of the Vi (μl/g)[55].
# (§3) As a priori sex differences were expected, male and female data were analyzed separately. Regression analyses and other statistical analyses were performed with Prism 8.0 (GraphPad Software Inc., San Diego, CA, USA) and SPSS (Chicago, IL) software. Brain weight means are reported with their standard error terms and analyzed using two-way analysis of variance (ANOVA) followed by Sidak’s post hoc test when appropriate. For pharmacokinetic studies, the slope of the linear regression lines (Ki), reported with their correlation coefficients (r), and y-intercepts (Vi) were compared statistically using the Prism software, as described.
# [2] = tested on: brain endothelial cell; assay: 125I-insulin reversible vascular binding (Vi), y-intercept of multiple-time regression; format: in vivo, mice (human E3- and E4-targeted replacement); settings: for Vi, reversible vascular binding: 15 mo, iv, albumin-corrected
# Protocol: as §1, §2, §3
# [3] = female E3 HFD mice, hippocampus
# [4] = female E3 HFD mice, parietal cortex
# [5] = female E3 HFD mice, pons/medulla
# [6] = female E3 LFD mice, hippocampus
# [7] = female E3 LFD mice, pons/medulla
# [8] = female E4 HFD mice, frontal cortex
# [9] = female E4 HFD mice, pons/medulla
# [10] = female E4 LFD mice, hypothalamus
# [11] = female E4 LFD mice, pons/medulla
# [12] = male E3 HFD mice, occipital cortex
# [13] = male E3 LFD mice, occipital cortex
# [14] = male E3 LFD mice, olfactory bulb
# [15] = male E4 LFD mice, parietal cortex
substance,measurement,setting,value
125I-insulin: human insulin (Sigma-Aldrich) radioactively labeled with Na125I by the chloramine-T method,"Ki, linear BBB transport (unidirectional influx rate)","[1]; female E3 HFD mice, cerebellum",1.34 µL/g/min
same,"Ki, linear BBB transport (unidirectional influx rate)",[1]; [3],0.96 µL/g/min
same,"Ki, linear BBB transport (unidirectional influx rate)","[1]; female E3 HFD mice, occipital cortex",1.03 µL/g/min
same,"Ki, linear BBB transport (unidirectional influx rate)","[1]; female E3 HFD mice, olfactory bulb",1.19 µL/g/min
same,"Ki, linear BBB transport (unidirectional influx rate)",[1]; [4],0.95 µL/g/min
same,"Ki, linear BBB transport (unidirectional influx rate)",[1]; [5],1.31 µL/g/min
same,"Ki, linear BBB transport (unidirectional influx rate)","[1]; female E3 HFD mice, striatum",1.32 µL/g/min
same,"Ki, linear BBB transport (unidirectional influx rate)","[1]; female E3 HFD mice, thalamus",0.91 µL/g/min
same,"Ki, linear BBB transport (unidirectional influx rate)","[1]; female E3 LFD mice, cerebellum",1.17 µL/g/min
same,"Ki, linear BBB transport (unidirectional influx rate)",[1]; [6],1.43 µL/g/min
same,"Ki, linear BBB transport (unidirectional influx rate)","[1]; female E3 LFD mice, midbrain",0.78 µL/g/min
same,"Ki, linear BBB transport (unidirectional influx rate)","[1]; female E3 LFD mice, occipital cortex",0.73 µL/g/min
same,"Ki, linear BBB transport (unidirectional influx rate)","[1]; female E3 LFD mice, olfactory bulb, no significant transport (p > 0.05)",1.06 µL/g/min
same,"Ki, linear BBB transport (unidirectional influx rate)","[1]; female E3 LFD mice, parietal cortex, no significant transport (p > 0.05)",0.64 µL/g/min
same,"Ki, linear BBB transport (unidirectional influx rate)",[1]; [7],0.91 µL/g/min
same,"Ki, linear BBB transport (unidirectional influx rate)","[1]; female E3 LFD mice, striatum",0.56 µL/g/min
same,"Ki, linear BBB transport (unidirectional influx rate)","[1]; female E3 LFD mice, thalamus, no significant transport (p > 0.05)",0.71 µL/g/min
same,"Ki, linear BBB transport (unidirectional influx rate)","[1]; female E4 HFD mice, cerebellum",1.04 µL/g/min
same,"Ki, linear BBB transport (unidirectional influx rate)",[1]; [8],0.62 µL/g/min
same,"Ki, linear BBB transport (unidirectional influx rate)","[1]; female E4 HFD mice, hypothalamus",1.41 µL/g/min
same,"Ki, linear BBB transport (unidirectional influx rate)","[1]; female E4 HFD mice, olfactory bulb",1.34 µL/g/min
same,"Ki, linear BBB transport (unidirectional influx rate)","[1]; female E4 HFD mice, parietal cortex",0.92 µL/g/min
same,"Ki, linear BBB transport (unidirectional influx rate)",[1]; [9],1.27 µL/g/min
same,"Ki, linear BBB transport (unidirectional influx rate)","[1]; female E4 HFD mice, striatum, no significant transport (p > 0.05)",0.85 µL/g/min
same,"Ki, linear BBB transport (unidirectional influx rate)","[1]; female E4 LFD mice, cerebellum",1.63 µL/g/min
same,"Ki, linear BBB transport (unidirectional influx rate)",[1]; [10],1.12 µL/g/min
same,"Ki, linear BBB transport (unidirectional influx rate)","[1]; female E4 LFD mice, midbrain",0.50 µL/g/min
same,"Ki, linear BBB transport (unidirectional influx rate)",[1]; [11],0.81 µL/g/min
same,"Ki, linear BBB transport (unidirectional influx rate)","[1]; female E4 LFD mice, striatum, no significant transport (p > 0.05)",0.30 µL/g/min
same,Whole brain BBB transport or vascular binding,"[1]; females, effect of genotype or diet",no differences
same,"Ki, linear BBB transport (unidirectional influx rate)","[1]; male E3 HFD mice, cerebellum",1.08 µL/g/min
same,"Ki, linear BBB transport (unidirectional influx rate)","[1]; male E3 HFD mice, hippocampus, no significant transport (p > 0.05)",1.08 µL/g/min
same,"Ki, linear BBB transport (unidirectional influx rate)","[1]; male E3 HFD mice, hypothalamus, no significant transport (p > 0.05)",0.57 µL/g/min
same,"Ki, linear BBB transport (unidirectional influx rate)","[1]; male E3 HFD mice, midbrain, no significant transport (p > 0.05)",0.96 µL/g/min
same,"Ki, linear BBB transport (unidirectional influx rate)",[1]; [12],0.88 µL/g/min
same,"Ki, linear BBB transport (unidirectional influx rate)","[1]; male E3 HFD mice, parietal cortex, no significant transport (p > 0.05)",-0.07 µL/g/min
same,"Ki, linear BBB transport (unidirectional influx rate)","[1]; male E3 HFD mice, striatum, no significant transport (p > 0.05)",0.04 µL/g/min
same,"Ki, linear BBB transport (unidirectional influx rate)","[1]; male E3 HFD mice, thalamus, no significant transport (p > 0.05)",0.65 µL/g/min
same,"Ki, linear BBB transport (unidirectional influx rate)","[1]; male E3 LFD mice, cerebellum",1.06 µL/g/min
same,"Ki, linear BBB transport (unidirectional influx rate)","[1]; male E3 LFD mice, hippocampus",0.92 µL/g/min
same,"Ki, linear BBB transport (unidirectional influx rate)","[1]; male E3 LFD mice, hypothalamus",1.22 µL/g/min
same,"Ki, linear BBB transport (unidirectional influx rate)","[1]; male E3 LFD mice, midbrain",0.40 µL/g/min
same,"Ki, linear BBB transport (unidirectional influx rate)",[1]; [13],0.75 µL/g/min
same,"Ki, linear BBB transport (unidirectional influx rate)",[1]; [14],1.28 µL/g/min
same,"Ki, linear BBB transport (unidirectional influx rate)","[1]; male E3 LFD mice, pons/medulla",1.41 µL/g/min
same,"Ki, linear BBB transport (unidirectional influx rate)","[1]; male E3 LFD mice, striatum, no significant transport (p > 0.05)",0.59 µL/g/min
same,"Ki, linear BBB transport (unidirectional influx rate)","[1]; male E3 LFD mice, thalamus, no significant transport (p > 0.05)",0.56 µL/g/min
same,"Ki, linear BBB transport (unidirectional influx rate)","[1]; male E4 HFD mice, hippocampus, no significant transport (p > 0.05)",0.36 µL/g/min
same,"Ki, linear BBB transport (unidirectional influx rate)","[1]; male E4 HFD mice, hypothalamus, no significant transport (p > 0.05)",0.35 µL/g/min
same,"Ki, linear BBB transport (unidirectional influx rate)","[1]; male E4 HFD mice, pons/medulla",0.65 µL/g/min
same,"Ki, linear BBB transport (unidirectional influx rate)","[1]; male E4 HFD mice, striatum, no significant transport (p > 0.05)",-0.12 µL/g/min
same,"Ki, linear BBB transport (unidirectional influx rate)","[1]; male E4 LFD mice, frontal cortex",0.65 µL/g/min
same,"Ki, linear BBB transport (unidirectional influx rate)","[1]; male E4 LFD mice, hippocampus",1.28 µL/g/min
same,"Ki, linear BBB transport (unidirectional influx rate)","[1]; male E4 LFD mice, hypothalamus, no significant transport (p > 0.05)",0.46 µL/g/min
same,"Ki, linear BBB transport (unidirectional influx rate)","[1]; male E4 LFD mice, midbrain",0.53 µL/g/min
same,"Ki, linear BBB transport (unidirectional influx rate)",[1]; [15],0.73 µL/g/min
same,"Ki, linear BBB transport (unidirectional influx rate)","[1]; male E4 LFD mice, striatum, no significant transport (p > 0.05)",0.57 µL/g/min
same,Whole brain BBB transport rate (Ki),"[1]; males, decreases due to HFD, p = 0.056",did not reach significance
same,"Vi, reversible vascular binding",[2]; [3],5.8 µL/g
same,"Vi, reversible vascular binding","[2]; female E3 HFD mice, midbrain",2.1 µL/g
same,"Vi, reversible vascular binding",[2]; [4],2.3 µL/g
same,"Vi, reversible vascular binding",[2]; [5],4.4 µL/g
same,"Vi, reversible vascular binding","[2]; female E3 LFD mice, frontal cortex",6.3 µL/g
same,"Vi, reversible vascular binding",[2]; [6],5.1 µL/g
same,"Vi, reversible vascular binding","[2]; female E3 LFD mice, hypothalamus",-0.2 µL/g
same,"Vi, reversible vascular binding","[2]; female E3 LFD mice, olfactory bulb",11.7 µL/g
same,"Vi, reversible vascular binding",[2]; [7],7.9 µL/g
same,"Vi, reversible vascular binding","[2]; female E3 LFD mice, striatum",4.0 µL/g
same,"Vi, reversible vascular binding","[2]; female E3 LFD mice, thalamus",8.4 µL/g
same,"Vi, reversible vascular binding",[2]; [8],5.2 µL/g
same,"Vi, reversible vascular binding","[2]; female E4 HFD mice, occipital cortex",4.1 µL/g
same,"Vi, reversible vascular binding",[2]; [9],3.0 µL/g
same,"Vi, reversible vascular binding","[2]; female E4 LFD mice, hippocampus",8.8 µL/g
same,"Vi, reversible vascular binding",[2]; [10],4.4 µL/g
same,"Vi, reversible vascular binding","[2]; female E4 LFD mice, midbrain",5.4 µL/g
same,"Vi, reversible vascular binding","[2]; female E4 LFD mice, occipital cortex",3.9 µL/g
same,"Vi, reversible vascular binding","[2]; female E4 LFD mice, parietal cortex",7.9 µL/g
same,"Vi, reversible vascular binding",[2]; [11],9.4 µL/g
same,"Vi, reversible vascular binding","[2]; female E4 LFD mice, striatum",6.3 µL/g
same,"Vi, reversible vascular binding","[2]; female E4 LFD mice, thalamus",8.8 µL/g
same,"Vi, reversible vascular binding",[2]; [12],0.2 µL/g
same,"Vi, reversible vascular binding","[2]; male E3 HFD mice, olfactory bulb",0.4 µL/g
same,"Vi, reversible vascular binding","[2]; male E3 HFD mice, pons/medulla",1.7 µL/g
same,"Vi, reversible vascular binding","[2]; male E3 HFD mice, thalamus",2.3 µL/g
same,"Vi, reversible vascular binding","[2]; male E3 LFD mice, frontal cortex",4.0 µL/g
same,"Vi, reversible vascular binding",[2]; [13],5.0 µL/g
same,"Vi, reversible vascular binding",[2]; [14],5.9 µL/g
same,"Vi, reversible vascular binding","[2]; male E3 LFD mice, parietal cortex",5.8 µL/g
same,"Vi, reversible vascular binding","[2]; male E4 HFD mice, pons/medulla",3.4 µL/g
same,"Vi, reversible vascular binding","[2]; male E4 HFD mice, striatum",4.2 µL/g
same,"Vi, reversible vascular binding","[2]; male E4 LFD mice, cerebellum",8.1 µL/g
same,"Vi, reversible vascular binding","[2]; male E4 LFD mice, hypothalamus",8.0 µL/g
same,"Vi, reversible vascular binding","[2]; male E4 LFD mice, occipital cortex",4.1 µL/g
same,"Vi, reversible vascular binding",[2]; [15],3.4 µL/g
same,"Vi, reversible vascular binding","[2]; male E4 LFD mice, striatum",4.4 µL/g
same,"Vi, reversible vascular binding","[2]; male E4 LFD mice, thalamus",4.1 µL/g
same,"Whole brain reversible vascular binding (Vi, y-axis intercept)","[2]; males, between apoE isoform/diet groups, p = 0.002",differences
